The target of test [1] is T1, human B7-2 (CD86) expressed on the cell surface (CHO/hB7-2 cells) (human, UniProt P42081 24-329).
T1 construct: whole, on cells; Also used for native B7-2 on human PBL in the MLR row under functional; also called rhB7-2
T1 sequence (looked up): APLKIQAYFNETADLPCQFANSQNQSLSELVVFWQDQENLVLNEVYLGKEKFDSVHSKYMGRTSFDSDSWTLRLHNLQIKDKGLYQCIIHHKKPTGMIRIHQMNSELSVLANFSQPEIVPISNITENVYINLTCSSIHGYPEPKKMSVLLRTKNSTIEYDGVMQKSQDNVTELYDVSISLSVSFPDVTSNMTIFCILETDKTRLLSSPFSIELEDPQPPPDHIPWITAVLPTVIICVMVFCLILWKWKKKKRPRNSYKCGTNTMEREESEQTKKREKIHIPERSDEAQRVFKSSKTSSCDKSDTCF
Nature of the test: direct binding of 125I-labeled antibody to CHO/hB7-2 cells, half-maximal binding. An excerpt:
(§1) Binding assays were begun by plating cells onto 96-well tissue culture plates at 10,000 CHO/hB7-2 cells per well. Two days later, adherent cells were gently washed with assay buffer containing nonfat dry milk protein (for blocking nonspecific binding) and sodium azide (to prevent internalization of antibodies by cells). For direct binding assays, ¹²⁵I-labeled anti-B7 antibodies (¹²⁵I-murine anti-human B7-2; 826 cpm/fmol; humanized anti-human B7-2, 883 cpm/fmol) were serially diluted in assay buffer and incubated on cells overnight, allowing antibodies to bind to cell-surface B7 and come to equilibrium. Unbound antibody was gently washed from cells, and bound ¹²⁵I-labeled antibody was detected using an ¹²⁵I scintillant and photodetector system. Non-specific binding to CHO cells was determined for each dilution in the same manner, but on cells expressing the B7-1 molecule that is not recognized by the antibody being tested.
The data, means of triplicate wells with nonspecific binding subtracted, were fit to a hyperbolic saturation curve using Graphpad PrismJ software. […] Both murine and humanized anti-B7-2 antibodies recognize cell surface expressed hB7-2 with high affinity.

Test [2] has as its target T1, human B7-2 (CD86) expressed on the cell …. Nature of the test: cell-based or functional assay.
The target of test [3] is T2, human B7-1 (CD80) expressed on the cell surface (CHO/hB7-1 cells) (human, UniProt P33681 35-288).
T2 construct: whole, on cells; Also used for native B7-1 on human PBL in the MLR; also called rhB7-1
T2 sequence (looked up): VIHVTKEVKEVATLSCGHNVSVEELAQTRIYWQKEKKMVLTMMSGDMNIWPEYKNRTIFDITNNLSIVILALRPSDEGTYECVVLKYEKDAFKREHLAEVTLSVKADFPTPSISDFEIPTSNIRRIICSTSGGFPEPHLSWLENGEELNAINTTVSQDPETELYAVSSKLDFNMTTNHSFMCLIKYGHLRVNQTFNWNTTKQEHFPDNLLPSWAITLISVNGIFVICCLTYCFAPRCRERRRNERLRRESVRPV
Description: 125I direct binding, CHO cells expressing B7-1 as control for non-specific binding.
Source text: as §1

Test [4] deals with T3, human B7-2Ig (recombinant soluble hB7-2Ig) (human, UniProt P42081 24-247).
T3 construct: extracellular domain; Secreted by CHO cells, purified on protein A, immobilized on the BIACORE chip; not shown: hinge-CH2-CH3 domains of the human IgG1 heavy chain
T3 sequence (looked up): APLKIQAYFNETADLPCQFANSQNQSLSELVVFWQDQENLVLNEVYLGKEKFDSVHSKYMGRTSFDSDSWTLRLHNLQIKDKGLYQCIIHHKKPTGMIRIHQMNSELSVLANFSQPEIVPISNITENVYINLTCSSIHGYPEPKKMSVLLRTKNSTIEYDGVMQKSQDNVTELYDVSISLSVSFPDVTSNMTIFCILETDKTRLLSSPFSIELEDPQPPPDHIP
Nature of the test: SPR (BIACORE), hB7-2Ig immobilized, bivalent model, mean of three runs. On the procedure:
(§2) The BIACORE® biosensor (BIACORE®; Uppsalla, Sweden) was used to determine binding kinetics of murine and humanized anti-B7-2 human antibodies to human B7-2Ig. Hunan B7-2Ig (hB7-2Ig) was immobilized onto the dextran matrix of a BIACORE® sensor chip. Humanized and murine anti-human B7-2 were tested at 200, 100, 50, and 20 nM. Each dilution was tested 4 times per run and a total of three separate runs performed. Anti-human B7-2 antibody binding was measured in real time by Surface Plasmon Resonance (SPR) and global analysis was performed using the bivalent binding model in BIA evaluation software (version 3.1). For each sample, the association (kₐ), dissociation (kd), and equilibrium dissociation constant (KD) were determined.

For test [5], the target named is T1, human B7-2 (CD86) expressed on the cell …. Description: competitive binding against 125I-murine 3D1 on CHO/hB7-2 cells. On the procedure:
(§3) The relative affinities, of the murine and humanized 3D1 antibodies for the B7-2 antigen were determined by competitive binding assays. Three-fold serial dilutions of unlabeled humanized or murine 3D1 antibodies were mixed with a fixed amount of radio-iodinated murine 3D1 antibody (40,000-50,000 cpm per test in PBS containing 2% fetal calf serum).
(§4) 1×10⁵ CHO cells expressing cell surface rhB7-2 (CHO/hB7-2) were added subsequently and the mixture (in a total volume of 200 μL) was incubated for 2 hr at 4° C. with gentle shaking. The cell-antibody suspension was then transferred to Sarstedt Micro Tubes (part #72.702) containing 100 μL of 80% dibutyl phthalate-20% olive oil. After centrifugation in a microfuge, the Sarstedt tubes were plunged into dry ice for several minutes. Cell-bound ¹²⁵I was determined by clipping tips of each tube (containing cell pellets) into scintillation vials and counting in a gamma counter. Bound and free counts were determined and the ratio plotted against the concentrations of the cold competitor antibodies according to the method of Berzofsky and Berkower (J. A. Berzofsky and I. J. Berkower, in Fundamental Immunology 9ed. W. E. Paul), Raven Press (New York), 595 (1984)).

The target is the same in test [6]. Nature of the test: competition binding on CHO/hB7-2 cells: unlabeled competitor against 125I-murine 3D1 tracer, bound/free ratio. On the procedure: as §3, §4
In test [7] the target is T2, human B7-1 (CD80) expressed on the cell …. Nature of the test: competition binding on CHO cells expressing rhB7-1: unlabeled competitor against 125I-humanized 1F1 tracer, bound/free ratio. On the procedure:
as §4, with “The affinity of the mouse and humanized 1F1 antibodies for the B7-1 antigen was determined by competitive binding with radio-iodinated humanized 1F1 antibody. Three-fold serial dilutions of unlabeled mouse or humanized 1F1 antibodies were mixed with a fixed amount of radio-iodinated humanized 1F1 antibody (40,000-50,000 cpm per test) in PBS containing 2% fetal calf serum, 0.1% sodium azide. 3×10⁴” for “1×10⁵”, “rhB7-1” for “rhB7-2 (CHO/hB7-2)”, “clipping the” for “clipping”, “Immunology,” for “Immunology 9ed.”, “Paul,” for “Paul),”, “Press, New York, pp. 595-644” for “Press (New York), 595”

Test [8] shares this target. Description: competitive binding against 125I-humanized 1F1 on CHO cells expressing rhB7-1. The method, then:
as §4, with “The affinity of the mouse and humanized 1F1 antibodies for the B7-1 antigen was determined by competitive binding with radio-iodinated humanized 1F1 antibody. Three-fold serial dilutions of unlabeled mouse or humanized 1F1 antibodies were mixed with a fixed amount of radio-iodinated humanized 1F1 antibody (40,000-50,000 cpm per test) in PBS containing 2% fetal calf serum, 0.1% sodium azide. 3×10⁴” for “1×10⁵”, “rhB7-1” for “rhB7-2 (CHO/hB7-2)”, “clipping the” for “clipping”, “Immunology,” for “Immunology 9ed.”, “Paul,” for “Paul),”, “Press, New York, pp. 595-644” for “Press (New York), 595”

Test [9] deals with T3, human B7-2Ig (recombinant soluble …). Nature of the test: SPR (BIACORE), hB7-2Ig immobilized. On the procedure: as §2

B1: humanized anti-human B7-2 mAb (humanized 3D1), isotype not stated in the example (antibody, V domains shown)
VH: QVQLVQSGAEVKKPGSSVKVSCKASGYTFTDYAIQWVRQAPGQGLEWIGVINIYYDNTNYNQKFKGKATMTVDKSTSTAYMELSSLRSEDTAVYYCARAAWYMDYWGQGTLVTVSS
VL: DIVLTQSPDSLAVSLGERATISCKSSQSLLNSRTRENYLAWYQQKPGQPPKLLIYWASTRESGVPDRFSGSGSGTDFTLTISSLQAEDVAVYYCTQSYNLYTFGQGTKVEIK
notes: Same variable regions; The entries include signal peptides (see the note of m2); also called humanized anti-B7-2; humanized anti-hB7-2
For B1, the Kd is around 1 nM in test [1] and 5.1 nM in test [4]. In test [2], the “IC50 of inhibition of CD28+ human T cell proliferation stimulated with PMA and CHO/hB7-2 cells” value is 0.05 nM. In addition, the binding result in [3] is “no binding”.

B2: humanized 3D1 antibody, IgG2.M3 form (antibody, V domains shown)
VH: B1 VH
VL: B1 VL
notes: Human gamma 2 constant region variant M3 (Val and Gly at positions 234 and 237 replaced with Ala; pVg2.M3 vector) and human kappa light chain; The entries include signal peptides (see the note of m2); also called humanized IgG2.M3 anti-human B7-2; hu3D1
For B2, the Ka in test [5] is around 1e+09 M⁻¹.

B3: humanized 3D1 antibody, IgG4 form (antibody, V domains shown)
VH: B1 VH
VL: B1 VL
notes: Human gamma 4 constant region (pVg4 vector) and human kappa light chain (pVk); also called humanized IgG4 anti-human B7-2; hu3D1
In the case of B3, in test [5], the Ka was around 1e+09 M⁻¹. In test [6], the “IC50 (read off the curve)” value was around 1 nM.

B4: humanized 1F1 antibody, IgG2.M3 form (antibody, V domains shown)
VH: EVQLVQSGAEVKKPGASVKVSCKPSGFNIKDYYMHWVRQAPGQGLEWIGWIDPENGNTLYDPKFQGKATITADTSTSTAYMELSSLRSEDTAVYYCAREGLFFAYWGQGTLVTVSS
VL: DIQMTQSPSSLSASVGDRVTITCSVSSSISSSNLHWYQQKPGKAPKPLIYGTSNLASGVPSRFSGSGSGTDYTLTISSLQPEDVATYYCQQWSSYPLTFGQGTKVEIK
notes: Human gamma 2 constant region variant M3 (Val and Gly at positions 234 and 237 replaced with Ala) and human kappa light chain; also called hu1F1; the IgG2.M3 antibody
Take B4: the “IC50 (read off the curve)” value in test [7] was around 1 nM. In addition, the Ka in [8] is around 1e+09 M⁻¹.

B5: murine 3D1 monoclonal antibody (murine anti-human B7-2 mAb) (antibody, V domains shown)
VH: QVQLQQSGPELVRPGESVKISCKGSGYTFTDYAIQWVKQSHAKSLEWIGVINIYYDNTNYNQKFKGKATMTVDKSSSTAYMELARLTSEDSAIYYCARAAWYMDYWGQGTSVTVSS
VL: DIVLSQSPSSLAVSAGEKVTMSCKSSQSLLNSRTRENYLAWYQQKPGQSPKLLIYWASTRESGVPDRFTGSGSGTDFTLTISSVQAEDLAVYYCTQSYNLYTFGGGTKLEIK
notes: Hybridoma mouse antibody with kappa light chain; also called HF2.3D1; mouse 3D1
As for B5, in test [9], the “fold higher affinity than the humanized anti-B7-2 mAb” value is around 2.8 fold. In test [5], the Ka is around 1e+09 M⁻¹. For the same molecule, the results for the Kd in test [1] and in [4] were around 1 nM and 1.8 nM, respectively. The “IC50 of inhibition of CD28+ human T cell proliferation stimulated with PMA and CHO/hB7-2 cells” value in [2] is 0.072 nM. Besides, the binding result in test [3] was “no binding”.

Source of the values: patent US20050208042A1 (GENETICS INSTITUTE, published 2005).
